Data as given in patent publication US11529397B2, “Method of treating mucopolysaccharidosis type IVA” (Saint Louis University, priority 2018, dated 2022).

B1: N-acetylgalactosamine-6-sulfatase (protein, listed as Homo sapiens)
chain: APQPPNILLLLMDDMGWGDLGVYGEPSRETPNLDRMAAEGLLFPNFYSANPLCSPSRAALLTGRLPIRNGFYTTNAHARNAYTPQEIVGGIPDSEQLLPELLKKAGYVSKIVGKWHLGHRPQFHPLKHGFDEWFGSPNCHFGPYDNKARPNIPVYRDWEMVGRYYEEFPINLKTGEANLTQIYLQEALDFIKRQARHHPFFLYWAVDATHAPVYASKPFLGTSQRGRYGDAVREIDDSIGKILELLQDLHVADNTFVFFTSDNGAALISAPEQGGSNGPFLCGKQTTFEGGMREPALAWWPGHVTAGQVSHQLGSIMDLFTTSLALAGLTPPSDRAIDGLNLLPTLLQGRLMDRPIFYYRGDTLMAATLGQHKAHFWTWTNSWENFRQGIDFCPGQNVSGVTTHNLEDHTKLPLIFHLGRDPGERFPLSFASAEYQEALSRITSVVQQHQEALVPAQPQLNVCNWAVMNWAPPGCEKLGKCLTPPESIPKKCLWSH
notes: recombinant human GALNS produced in CHO cells, used for ERT and oral tolerance

Assays:
splenocytes = assay: Cytokine production by splenocytes after in vitro stimulation (Example 3); format: cell-based, mouse; conditions: splenocytes of MKC mice treated by ERT with GALNS; culture supernatant
Method: Mice (MKC) genetically engineered not to express GALNS were used in these examples. […] 200 μl of the emulsion were administered as a subcutaneous injection. […] Control mice (n=2) were immunized with PBS emulsified in CFA and IFA respectively (Chung et al. (2005) J. Leukoc Biol. 77(6):906-13)). […] A control group (n=5) received PBS (Tomatsu et al. (2008) Hum Mol Genet. 15; 17(6):815-24). […]
The production of cytokines after peptide stimulation was evaluated as intracellular staining (by flow cytometry) and secreted cytokines (by LUMINEX). […] The cells were treated with 1 μl of a protein transport inhibitor BD GolgiPlug™ during 5 h at 37° C., saturated humidity and 5% CO2. The suspension of cells was centrifuged at 1000 rpm during 10 minutes. The supernatants were collected by further analysis with LUMINEX. The Fc receptors were blocked with 1 μl of α-mouse CD16/32 (e-Bioscience) during 15 min at 4° C. After washing, the cells were stained with PE-Cy7-labeled anti-mouse CD4 and Alexa700-labeled anti-mouse CD8 antibodies during 30 min at 4° C. After two washes, cells were permeabilized with a BD fixation/permeabilization solution during 20 min at 4° C. Cells were washed two times and stained with a cocktail of antibodies for intracellular staining (PE-labeled anti-mouse IL-4, APC-labeled anti-mouse IL-5 and FITC-labeled anti-mouse IFN-γ). After two washes, cells were analyzed by flow cytometry. Secreted cytokines (IL-4, IL-5, IL-13, IL-17 and IFN-γ) in the collected supernatants were detected by using a bead immunoassay kit which allows the measurement of multiple proteins simultaneously (LUMINEX technology, using a Millipore Milliplex™ kit).

MKC mice = assay: Oral tolerance induction: GALNS specific IgG plasma levels by ELISA (Example 19); format: in vivo, mouse
Method: Control groups (7 and 8) received PBS alone.
An indirect ELISA technique was used to detect plasma IgG and IgE antibodies against GALNS in treated and untreated mice. […] The plates were blocked with 3% Casein in PBS for 1 h at room temperature in a wet chamber. After two washes, first with TTBS (10 mMTris, 150 mM NaCl, 0.05% Tween20, pH 7.5), and then with TBS (10 mM Tris, 150 mM NaCl, 0.05%, pH 7.5), […] of mice plasma samples diluted 1:500, for IgE and 1:1,000 for IgG, in TTBS were added to the plate and incubated 2 h at 37° C. in a wet chamber. Four washes with TTBS were performed. 100 μl of anti-mouse IgE-HRP (Thermo Scientific) 1:1,000 in TTBS or IgG-Peroxidase (Sigma) 1:5,000 dilution in TTBS were applied. After three washes with TTBS, followed by one wash with TBS, the experiment was developed with the substrate TMB (3,3′,5,5′Tetramethylbenzidine). The enzymatic reaction was stopped with IN HCl solution and the absorbance was measured at 450 nm in a Multiskan® EL800 (Bio-Tek Instruments). Plasma concentrations of IgG antibodies anti-GALNS were derived by extrapolation of the absorbance values from a calibration curve using a mAb anti-GALNS.

[1] = tested on: Morquio A mice and WT mice; assay: Plasma IgG anti-GALNS by indirect ELISA in mice treated by ERT (Example 8); format: in vivo, mouse; conditions: 16 i.v. infusions of GALNS
Method: Morquio A mouse models: a). […] 14(22): p. 3321-35).c). Missense mutation mice (Galnstm (C76S) SLU C2) (Tomatsu et al. (2007) Mol Genet Metab., 91(3): p. 251-8), and wild-type C57BL6 mice were treated by ERT. […] A control group received PBS.
An indirect ELISA technique was used to detect plasma IgG antibodies against GALNS in treated and untreated mice. […] The plates were blocked with 3% casein in PBS during 1 h at room temperature in a wet chamber. After two washes, first with TTBS (10 mM Tris, 150 mM NaCl, 0.05% Tween 20, pH 7.5), and then with TBS (10 mM Tris, 150 mM NaCl, 0.05%, pH 7.5), […] of mice plasma samples diluted (1:1,000) in TTBS were added to the plate and incubated 2 h at 37° C. in a wet chamber. Four washes with TTBS were performed. 100 μl of anti-mouse IgG-Peroxidase (Sigma) 1:5,000 dilution in TTBS were applied. After three washes with TTBS, followed by one wash with TBS, the experiment was developed with the substrate TMB (3,3′,5,5′-Tetramethylbenzidine, Sigma). The enzymatic reaction was stopped with IN HCl solution and the absorbance was measured at 450 nm in a microplate reader Multiskan® EL800 (Bio-Tek Instruments). Plasma concentrations of IgG antibodies anti-GALNS were derived by extrapolation of the absorbance values from a calibration curve using a mAb anti-GALNS.

[2] = oral 50 μg, one week after the last infusion

| Molecule | secretion of cytokines IL-5 and IFN-γ (splenocytes) | reduction in GALNS specific IgG plasma levels vs non-tolerized mice, p or words (MKC mice; [2]) | reduction in GALNS specific IgG plasma levels vs non-tolerized mice, p or words (MKC mice; oral 100 μg) | reduction in GALNS specific IgG plasma levels vs non-tolerized mice, p or words (MKC mice; oral 500 μg) | humoral response, IgG anti-GALNS in plasma ([1]; C2 mice) | humoral response, IgG anti-GALNS in plasma ([1]; MKC mice) | humoral response, IgG anti-GALNS in plasma ([1]; MTol mice) | humoral response, IgG anti-GALNS in plasma ([1]; WT mice) |
| --- | --- | --- | --- | --- | --- | --- | --- | --- |
| QQHQEALVPAQPQLNVTNWA (listed as Homo sapiens) [Peptide I10] | strong response | 0.0086 | same levels or in some cases higher levels | same levels or in some cases higher levels |  |  |  |  |
| B1 |  | same levels or in some cases higher levels | 0.033 |  | heterogeneous humoral response | stronger and more homogeneous response | lowest levels of response | heterogeneous humoral response |
